The values that follow come from the Immune Epitope Database (IEDB).

What all share (conditions): source organism: Homo sapiens
In assay [1] the target is HLA-A*03:01. The assay can be described thus: IEDB peptide-MHC binding, purified MHC/competitive/radioactivity; ≥ and ≤ were set here for values at or beyond the usual limits of such assays.
Assay [2] concerns the target HLA-A*11:01. Described as above.
For the next assay, the target named is HLA-B*08:01. The assay can be described thus: IEDB peptide-MHC binding, purified MHC/competitive/radioactivity; filed as Kd, often an IC50 or EC50 that approximates it; ≥ and ≤ were set here for values at or beyond the usual limits of such assays.
Another assay concerns the target HLA-A*02:01. The assay is described as above.
In the next assay the target is HLA-B*07:02. Described as above.
For assay [3], the target named is HLA-B*27:01. The assay can be described thus: IEDB peptide-MHC binding, purified MHC/competitive/radioactivity; ≥ and ≤ were set here for values at or beyond the usual limits of such assays.
The target of assay [4] is HLA-A*11:01. The assay can be described thus: IEDB peptide-MHC binding, purified MHC/competitive/radioactivity; filed as Kd, often an IC50 or EC50 that approximates it; ≥ and ≤ were set here for values at or beyond the usual limits of such assays.
The target in the next assay is HLA-A*24:02. The assay is described as above.
For assay [5], the target named is HLA-B*27:01. Described as above.
The target in assay [6] is HLA-A*03:01. The description is as above.

In the case of ATGFKQSSK, the IC50 in the assay with HLA-A*03:01 [1] was found to be 0.3 µM; with HLA-A*11:01 [2], 0.097 µM.

For the sequence ATGFKQSSKAL, the Kd was 3.6 µM with HLA-B*08:01 and at least 30 µM with HLA-A*02:01.

In the case of CITQGKAI, the Kd with HLA-A*02:01 is at least 50 µM.

DLSSCITQGKA: the Kd in the assay with HLA-A*02:01 is at least 50 µM. In the case of EALQRPVASDF, the Kd with HLA-B*07:02 was at least 30 µM.

For GFKQSSKAL, the IC50 with HLA-B*27:01 [3] is 0.19 µM. Take GFKQSSKALQR: the Kd in the assay with HLA-A*11:01 [4] amounted to 2.15 µM. In the assay with HLA-A*03:01 [1], the IC50 stood at 0.81 µM.

In the case of GKQSSKALQR, the Kd with HLA-A*11:01 [4] was at least 5 µM. Moreover, in the assay with HLA-A*03:01 [1], the IC50 stood at 0.545 µM.

As to HSATGFKQSSK, the IC50 with HLA-A*03:01 [1] amounted to 0.4 µM; with HLA-A*11:01 [2], 0.125 µM. For the sequence HVASGAGEAAI, the Kd with HLA-A*02:01 is at least 50 µM. With INKEEALQR, the dissociation constant (Kd) in the assay with HLA-A*11:01 [4] is at least 30 µM. As to KALQRPVSDF, the Kd with HLA-A*24:02 was at least 30 µM.

Regarding KQSSKALQR, the values for the IC50 in the assay with HLA-A*03:01 [1] and in the assay with HLA-A*11:01 [2] were 0.043 µM and 0.273 µM, respectively. As for LTINKEEAL, the Kd in the assay with HLA-B*08:01 was 1.9 µM; in the assay with HLA-A*02:01, at least 30 µM.

For NKEEALQR, the Kd with HLA-B*27:01 [5] was at least 30 µM. As to PLTINKEEAL, the Kd with HLA-A*02:01 is at least 30 µM. With QSSKALQR, the Kd with HLA-A*03:01 [6] and in the assay with HLA-A*11:01 [4] was at least 30 µM throughout. In the case of SATGFKQSSK, the dissociation constant Kd with HLA-A*03:01 [6] was 5.45 µM; in the assay with HLA-A*11:01 [4], 3.53 µM.

As to TGFKQSSK, the Kd in the assay with HLA-A*03:01 [6] and in the assay with HLA-A*11:01 [4] was at least 30 µM each time.

Turning to TINKEEAL, the Kd in the assay with HLA-A*02:01 is at least 30 µM.

In the case of TINKEEALQR, the Kd in the assay with HLA-A*03:01 [6] and with HLA-A*11:01 [4] was at least 30 µM throughout. As to VASGAGEAAI, in the assay with HLA-A*02:01, the Kd is at least 50 µM.

Usually IC50 stands for the midpoint of a concentration-inhibition curve. By Kd is commonly meant the equilibrium constant for the complex coming apart.
